In patent US20140178329A1 (INSTITUCIO CATALANA DE RECERCA I ESTUDIS AVANCATS ICREA, published 2014):
No end group written: not given here.

B1: FLAG-tagged wild-type soluble APRIL (amino acid 105 to 250) (ligand)
chain: AVLTQKQKKQHSVLHLVPINATSKDDSDVTEVMWQPALRRGRGLQAQGYGVRIQDAGVYLLYSQVLFQDVTFTMGQVVSREGQGRQETLFRCIRSMPSHPDRAYNSCYSAGVFHLHQGDILSVIIPRARAKLNLSPHGTFLGFVKL
notes: Used as conditioned medium of transfected 293T cells, not purified; also called WT; WT APRIL; not shown: FLAG tag
B6: mouse BCMA-Fc (R&D Systems) (Fc fusion, UniProt O88472 2-49, looked up)
chain: AQQCFHSEYFDSLLHACKPCHLRCSNPPATCQPYCDPSVTSSVKGTYT
notes: Bought; also called mBCMA-Fc; murine BCMA-Fc; not shown: Fc portion of human IgG1
B8: mouse TACI-Fc (R&D Systems) (Fc fusion, UniProt Q9ET35 5-129, looked up)
chain: FCPKDQYWDSSRKSCVSCALTCSQRSQRTCTDFCKFINCRKEQGRYYDHLLGACVSCDSTCTQHPQQCAHFCEKRPRSQANLQPELGRPQAGEVEVRSDNSGRHQGSEHGPGLRLSSDQLTLYCT
notes: Bought; also called mTACI-Fc; murine TACI-Fc; not shown: Fc portion of human IgG1

Key:
human TACI-Fc = molecular target: T1, human TACI-Fc (human, UniProt O14836 2-160, limits assumed); assay: SPR (Biacore 2000), FLAG-APRIL captured by anti-FLAG M2, receptor-Fc injected, single cycle kinetics, 1:1 fit
T1 construct: Generated in-house; not shown: Fc portion of human IgG1
T1 sequence (looked up): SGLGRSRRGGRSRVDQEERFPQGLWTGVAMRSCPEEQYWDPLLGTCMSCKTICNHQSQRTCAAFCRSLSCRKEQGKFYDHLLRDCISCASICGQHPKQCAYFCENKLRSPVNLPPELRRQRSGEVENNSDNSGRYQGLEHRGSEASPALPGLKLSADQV
Procedure: (§1) FIG. 10: Surface Plasmon Resonance sensorgrams to illustrate binding of TACI-Fc and BCMA-Fc to WT and R206E-APRIL. Sensorgrams of human (Panel A) and mouse (Panel B) receptors binding to WT and R206E-APRIL. Stepwise increments in the curves represent sequential injections of receptor at the following concentrations: […]. In some cases, no value for affinity was calculated due to a low binding response or high drift.
(§2) In order to further assess the binding properties of the mutants and to measure apparent affinities and kinetics of receptor binding, a Surface Plasmon Resonance based receptor binding assay was performed on a Biacore 2000 (GE Healthcare, Diegem, Belgium). Anti-FLAG-M2 monoclonal antibody (Sigma-Aldrich) was diluted at a concentration of 5 μg/ml in 10 mM sodium acetate pH 4.5 and covalently immobilized (approx 1500 RU) to a CM-5 sensor chip (GE Healthcare), using standard amine coupling chemistry according to manufacturer's guidelines (Amine coupling kit, GE Healthcare). The different FLAG-APRIL variants in the form of tissue culture supernatants were captured onto the chip via the FLAG-tag at 10 μl/minute for five minutes, giving capture levels ranging from 159 to 207 RU. As a reference lane, one of the flow cells was left free of soluble FLAG-APRIL, to control for any background binding. BCMA- or TACI-Fc were then injected for three minutes over all four flow cells at 30 μl/minutes at increasing concentrations (ranging from 1-50 nM) using the single cycle kinetics method at 25° C. Dissociation was monitored for five minutes. The resulting curves were fitted using a 1:1 Langmuir model using BIAevaluation software 4.1. For each combination of FLAG-APRIL and BCMA- or TACI-Fc, the apparent kₐ, kd and KD were calculated from a global fit of binding curves from at least three separate experiments. Non-specific binding in the reference cell was subtracted before curve fitting. Regeneration of the anti-FLAG antibody surface was carried out with a 10-minute injection at 30 μl/minute of a mixture of ⅓ volume of TBS pH 11.5, ⅓ volume of Ionic solution and ⅓ volume of water. The Ionic solution was comprised of KSCN (0.46 M), MgCl₂ (1.83 M), urea (0.92 M) and guanidine-HCl (1.83 M).

[1] = molecular target: B8; assay: receptor-binding ELISA, mouse TACI-Fc coated [TACI selective, Ms TACI-Fc coated]
Procedure: (§3) The relative binding of the variants to either BCMA or TACI, was tested using a binding ELISA. The following proteins were used: human BCMA-Fc, human TACI-Fc (both generated in-house), mouse BCMA-Fc (R&D Systems, Abingdon, UK), mouse TACI-Fc (R&D Systems); in all cases the Fc portion is from human IgG1. BCMA-Fc and TACI-Fc were coated on 96-well Nunc Maxisorp plates (Thermo Fischer Scientific, Roskilde, Denmark) at concentrations of 1 μg/ml and 2 μg/ml, respectively, in 0.5 M sodium bicarbonate buffer pH 9.5, overnight at 4° C. Plates were then blocked with 5% BSA for one hour at 37° C. Soluble APRIL variants in the form of tissue culture conditioned medium were then added to the plate for two hours at 37° C. Following APRIL binding, plates were washed three times with PBS, 0.05% TWEEN®20. Bound APRIL was detected with 1 μg/ml of HRP-coupled anti-FLAG M2 and visualized with 2,2′-azino-bis(3-ethylbenzothiazoline-6-sulphonic acid (ABTS) (Sigma-Aldrich). The absorbance was read at 405 nm using a UV-VIS microplate reader (BioRad, Veenendaal, The Netherlands).

[2] = molecular target: B6; assay: receptor-binding ELISA, mouse BCMA-Fc coated, dilution series of conditioned medium, anti-FLAG-HRP, OD 405 nm [TACI selective, Ms BCMA-Fc coated]
Procedure: as §3

[3] = molecular target: B8; assay: receptor-binding ELISA, mouse TACI-Fc coated, dilution series of conditioned medium, anti-FLAG-HRP, OD 405 nm [TACI selective, Ms TACI-Fc coated]
Procedure: as §3

[4] = molecular target: B6; assay: receptor-binding ELISA, mouse BCMA-Fc coated, dilution series of conditioned medium, anti-FLAG-HRP, OD 405 nm [BCMA selective, Ms BCMA-Fc coated]
Procedure: as §3

[5] = molecular target: B1; assay: SPR (Biacore 2000), FLAG-APRIL captured by anti-FLAG M2, receptor-Fc injected, single cycle kinetics, 1:1 fit
Procedure: as §1, §2

Work on B1 yielded a Kd (human TACI-Fc) of 3900 pM, a koff (human TACI-Fc) of 0.00041 s⁻¹ and a kon (human TACI-Fc) of 110000 M⁻¹ s⁻¹.

B2: T175Y (ligand)
soluble APRIL monomer: AVLTQKQKKQHSVLHLVPINATSKDDSDVTEVMWQPALRRGRGLQAQGYGVRIQDAGVYLLYSQVLFQDVYFTMGQVVSREGQGRQETLFRCIRSMPSHPDRAYNSCYSAGVFHLHQGDILSVIIPRARAKLNLSPHGTFLGFVKL
notes: FLAG-tagged soluble variant used as 293T conditioned medium; predicted TACI-selective; member of group m13; also called APRIL-T175Y
B2: no binding [1]; binds [2].

B3: R233E (ligand)
soluble APRIL monomer: AVLTQKQKKQHSVLHLVPINATSKDDSDVTEVMWQPALRRGRGLQAQGYGVRIQDAGVYLLYSQVLFQDVTFTMGQVVSREGQGRQETLFRCIRSMPSHPDRAYNSCYSAGVFHLHQGDILSVIIPRAEAKLNLSPHGTFLGFVKL
notes: FLAG-tagged soluble variant used as 293T conditioned medium; predicted TACI-selective; member of group m13; also called APRIL-R233E
B3: binds [2]; binds [3].

B4: APRIL-H241T (FLAG-tagged soluble variant) (ligand)
chain: AVLTQKQKKQHSVLHLVPINATSKDDSDVTEVMWQPALRRGRGLQAQGYGVRIQDAGVYLLYSQVLFQDVTFTMGQVVSREGQGRQETLFRCIRSMPSHPDRAYNSCYSAGVFHLHQGDILSVIIPRARAKLNLSPTGTFLGFVKL
notes: not shown: FLAG tag
B4: binds [2]; binds [3].

B5: APRIL-R206M (FLAG-tagged soluble variant) (ligand)
chain: AVLTQKQKKQHSVLHLVPINATSKDDSDVTEVMWQPALRRGRGLQAQGYGVRIQDAGVYLLYSQVLFQDVTFTMGQVVSREGQGRQETLFRCIRSMPSHPDMAYNSCYSAGVFHLHQGDILSVIIPRARAKLNLSPHGTFLGFVKL
notes: Used as conditioned medium; not shown: FLAG tag
Work on B5 yielded a Kd (human TACI-Fc) of 320 pM, a koff (human TACI-Fc) of 0.00016 s⁻¹ and a kon (human TACI-Fc) of 490000 M⁻¹ s⁻¹. B5: binds [4].

Work on B6 yielded a Kd [5] of 140 pM, a koff [5] of 0.00013 s⁻¹ and a kon [5] of 890000 M⁻¹ s⁻¹.

B7: human BCMA-Fc (Fc fusion, UniProt Q02223 2-54, looked up)
chain: LQMAGQCSQNEYFDSLLHACIPCQLRCSSNTPPLTCQRYCNASVTNSVKGTNA
modifications: cysteine pairing not given here; also: fused to human IgG1 Fc, construct limits, linker and order not given here
notes: Generated in-house; not shown: Fc portion of human IgG1
In the case of B7, the Kd [5] is reported as 380 pM, the koff [5] is reported as 0.0002 s⁻¹ and the kon [5] is reported as 530000 M⁻¹ s⁻¹.

B8 gave a Kd [5] of 4400 pM, a koff [5] of 0.00075 s⁻¹ and a kon [5] of 170000 M⁻¹ s⁻¹.

B9: APRIL-T175D (FLAG-tagged soluble variant) (ligand)
chain: AVLTQKQKKQHSVLHLVPINATSKDDSDVTEVMWQPALRRGRGLQAQGYGVRIQDAGVYLLYSQVLFQDVDFTMGQVVSREGQGRQETLFRCIRSMPSHPDRAYNSCYSAGVFHLHQGDILSVIIPRARAKLNLSPHGTFLGFVKL
notes: as for B5
B9: binds [4].

B10: R233A (ligand)
soluble APRIL monomer: AVLTQKQKKQHSVLHLVPINATSKDDSDVTEVMWQPALRRGRGLQAQGYGVRIQDAGVYLLYSQVLFQDVTFTMGQVVSREGQGRQETLFRCIRSMPSHPDRAYNSCYSAGVFHLHQGDILSVIIPRAAAKLNLSPHGTFLGFVKL
notes: FLAG-tagged soluble variant used as 293T conditioned medium; predicted TACI-selective; member of group m13; also called APRIL-R233A
B10: binds [2]; binds [3].

B11: APRIL-D205Y (FLAG-tagged soluble variant) (ligand)
chain: AVLTQKQKKQHSVLHLVPINATSKDDSDVTEVMWQPALRRGRGLQAQGYGVRIQDAGVYLLYSQVLFQDVTFTMGQVVSREGQGRQETLFRCIRSMPSHPYRAYNSCYSAGVFHLHQGDILSVIIPRARAKLNLSPHGTFLGFVKL
notes: as for B5
B11: binds [4].

B12: APRIL-D132Y (FLAG-tagged soluble variant) (ligand)
chain: AVLTQKQKKQHSVLHLVPINATSKDDSYVTEVMWQPALRRGRGLQAQGYGVRIQDAGVYLLYSQVLFQDVTFTMGQVVSREGQGRQETLFRCIRSMPSHPDRAYNSCYSAGVFHLHQGDILSVIIPRARAKLNLSPHGTFLGFVKL
notes: as for B5
B12: binds [2].

B13: T175L (ligand)
soluble APRIL monomer: AVLTQKQKKQHSVLHLVPINATSKDDSDVTEVMWQPALRRGRGLQAQGYGVRIQDAGVYLLYSQVLFQDVLFTMGQVVSREGQGRQETLFRCIRSMPSHPDRAYNSCYSAGVFHLHQGDILSVIIPRARAKLNLSPHGTFLGFVKL
notes: FLAG-tagged soluble variant used as 293T conditioned medium; predicted TACI-selective; member of group m13; also called APRIL-T175L
B13: no binding [1]; binds [2].

B14: D132A (ligand)
soluble APRIL monomer: AVLTQKQKKQHSVLHLVPINATSKDDSAVTEVMWQPALRRGRGLQAQGYGVRIQDAGVYLLYSQVLFQDVTFTMGQVVSREGQGRQETLFRCIRSMPSHPDRAYNSCYSAGVFHLHQGDILSVIIPRARAKLNLSPHGTFLGFVKL
notes: FLAG-tagged soluble variant used as 293T conditioned medium; predicted TACI-selective; member of group m13; also called APRIL-D132A
B14: binds [2]; binds [3].

B15: APRIL-D132F (FLAG-tagged soluble variant) (ligand)
chain: AVLTQKQKKQHSVLHLVPINATSKDDSFVTEVMWQPALRRGRGLQAQGYGVRIQDAGVYLLYSQVLFQDVTFTMGQVVSREGQGRQETLFRCIRSMPSHPDRAYNSCYSAGVFHLHQGDILSVIIPRARAKLNLSPHGTFLGFVKL
notes: as for B5
B15: binds [2].

B16: T175F (ligand)
soluble APRIL monomer: AVLTQKQKKQHSVLHLVPINATSKDDSDVTEVMWQPALRRGRGLQAQGYGVRIQDAGVYLLYSQVLFQDVFFTMGQVVSREGQGRQETLFRCIRSMPSHPDRAYNSCYSAGVFHLHQGDILSVIIPRARAKLNLSPHGTFLGFVKL
notes: FLAG-tagged soluble variant used as 293T conditioned medium; predicted TACI-selective; member of group m13; also called APRIL-T175F
B16: no binding [1]; binds [2].
